# Assay results reported in the nanobody polyreactivity screen of Harvey et al. (2022).
# Test: yeast display, Sf9 membrane polyspecificity reagent, FACS + sequencing; frameworks hold sequencing errors
# Summary of the method: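 Nanobodies from a synthetic yeast display library (Saccharomyces cerevisiae BJ5465), induced 36–48 hours with galactose, were stained 1 hour at 4 °C with 10% biotinylated, detergent-solubilized Sf9 membrane reagent, enriched on streptavidin microbeads, then FACS-sorted. Anti-HA (expression) and streptavidin (reagent binding) fluorescence set low and high (top ~1%) gates. Polyreactivity labels come from the gate of origin. Genes were colony-PCR amplified, MiSeq 2 × 250 sequenced and filtered by CDR length.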
row,Sequence,polyreactivity (PSR sort gate)
1,QVQLEESGGGLVQAGGSLRLSCAASGSIFDVYAIGWYRQAPGKERELVAGINSAGSTYYADSVKGRFTISRDNAKNTVYLQMNSLKPEDSAVYYCAAREYILTPGYQWYTYRGYDYWGQGTQVTVSS,low polyreactivity
2,QVQLEESGGGLVQAGGSLRLSCAASGSIFGAYTMGWYRQAPGKERELVAAISIGGSKNYADSVKGRFTISRDNAKNTVYLQMNSLKPEDTAVYYCNAEPDLEDWWWAIGLYDYWGQGTQVTVSS,high polyreactivity
3,QVQLEESGGGLVQAGGSLRLSCAASGSIFLGYAMGWYRQAPGKERELVAAITTVGSTNYADSVKGRFTISRDNAKNTVYLQMNSVKPEDTAVYYCAAGWVGWGEKYTLDYWGQGTQVTVSS,high polyreactivity
4,QVQLEESGGGLVQAGGSLRLSCAASGSIFQQYAMGWYRQAPGKERELVAAISYSGGTTYYADSVKGRFTISRDNAKNTVYLQMNSLKPEDTAVDYCAAYYPSGSYDYYWGQGTQVTVSS,low polyreactivity
5,QVQLEESGGGLVQAGGSLRLSCAASGSIFRGYAMGWYRQAPGKERELVAAITWGGGSTYADSVKGRFTISRDNAKNTVYLQMNSLKPEDTAVYYCAARYVSRYYVYRGFEYWGQGTQVTVSS,high polyreactivity
6,QVQLEESGGGLVQAGGSLRLSCAASGSIFRPNAMGWYRQAPGKERELVASINSGSGSTYYADSVKGRFTISRDNAKNTVYLQMNSLKPEDTAVYYCNAAGAYPYYSEDYYWGQGTQVTVSS,low polyreactivity
7,QVQLEESGGGLVQAGGSLRLSCAASGSIFYDYAMGWYRQAPGKERELVAAISKSDGSTYYADSVKGRFTISRDNAKNTVYLQMNSLKPEDTAVYYCNADLIYSYPPEYDYWGQGTQVTVSS,high polyreactivity
8,QVQLEESGGGLVQAGGSLRLSCAASGSIIRYNAMGWYRQAPGKERELVAAISASGGRTHYADSVKGRFTISRDNAKNTVYLQMNSLKPEYTAVYYCAASTYRVTSLYGYWGQGTQVTVSS,high polyreactivity
9,QVQLEESGGGLVQAGGSLRLSCAASGSTFDNNGMGWYRQATGKERELVASITFNVGSTYYADSVKGRFTMSRDNAKNTVYLQMNSLKPEDTAVYYCGADDLNLSQALGYDFWGQGTQVTVSS,low polyreactivity
10,QVQLEESGGGLVQAGGSLRLSCAASGSTFDRNTMGWYRQAPGKERELVAAITWSSGSTYYADSVKGRFTISRDNAKNTVYLQMNSLKPEDTAVYYCAADPIRYRSRHKYGYWGQGTQVTVSS,low polyreactivity
11,QVQLEESGGGLVQAGGSLRLSCAASGSTFPGNALGWYRQAPGKERELVAAITSSGGSTDYADSVKGRFTISRDNAKNTVYLQMNSLKPEDTAVYYCAADGEDSLWTGYDYDYWGQGTQVTVSS,low polyreactivity
12,QVQLEESGGGLVQAGGSLRLSCAASGSTFPGNGMGCYRPEPGKERELVAYISGGGDSTYYADSVKGRFTISRDNAKNTVYLQMNSLKPEETAVYYCAADYRQEPGYTGYYYWGHGTQVTVSS,low polyreactivity
13,QVQLEESGGGLVQAGGSLRLSCAASGSTFPPYEMGWYRQAPGKERELVAAISGSGGSTNYADSVKGRFTISRDHAKNTVYLQMNSLKPEDNAVYRDYWGQGTQVTVSS,low polyreactivity
14,QVQLEESGGGLVQAGGSLRLSCAASGSTFRANAMGWYRQAPGKERELVAAISSGDSTNYADSVKGRFTISRDNAKNTVYLQMNSLKPEDTAVYYCAAVYTYYWWGSYGFWGQGTQVTVSS,low polyreactivity
15,QVQLEESGGGLVQAGGSLRLSCAASGSTFRYYAMGWYRQAHGKERELVAGISSSGGSTYYADSVKGRFTISRDNAKNTVYLQMNSLKPEDTAVYYCNAARGSSRSWAVFADYDYWGQGTQVTVSS,high polyreactivity
16,QVQLEESGGGLVQAGGSLRLSCAASGSTFTGYAMGWYRQAPGKERELVAAISISGGRTFYADSVKVRFTISRDNAKNTVYLQMNSLKPEDTAVYYCAAYLRGSKYSFDYWGQGTQVTVSS,high polyreactivity
17,QVQLEESGGGLVQAGGSLRLSCAASGSTFTLNAMGWYRQAPGKERELVADISWSSGRTYYADSVKGRFTISRDNAKNTVYLQMNSLKPEDTAVYYCATDDFWNVKFYAYYPEFDYWGQGTQVTVSS,low polyreactivity
18,QVQLEESGGGLVQAGGSLRLSCAASGSTFYAYAMGWYRQAPGKERELVAAIDSGGSTYYADSVKGRFTSSRDNAKNTVYLQMNSLKPEDTAVYYCAVRHRYTRAFWGRDYWGQGTQVTVSS,low polyreactivity
19,QVQLEESGGGLVQAGGSLRLSCAASGSTFYLYDMGWYRQAPGKERELVATITSATSTTYADSVKGRFTISRDNATNTVYLQMNSLNPEHTAVYYCNATDVGIITVGYGHGGYYWGQGTQVTVSS,low polyreactivity
20,QVQLEESGGGLVQAGGSLRLSCAASGSTLEYNVMGWYRQAPGKERELVAAFSRSGGITYYADSVKGRFTISRDNAKNTVYLQMNRLKPEDTAVYYCNRLYTRVREYESWGQGTQVTVSS,high polyreactivity
21,QVQLEESGGGLVQAGGSLRLSCAASGSTLGYNVMGWYRQAPGKERELVAAISGDGSTNYADSVKGRFTISRDNAKNTVYLQMNSLKPEDTAVYYCAADTYGGSRDYWGQGTQVTVSS,low polyreactivity
22,QVQLEESGGGLVQAGGSLRLSCAASGYTFGFYTMGWYRQAPGQERALVAGISWSGGSTYYADSVKGPFTISRDNAKNTVYLQMNSLKQEDTAVFYCAAVSTRVLVNYDSWGQGTQVTVSS,high polyreactivity

row,Sequence,polyreactivity (PSR sort gate)
1,QVQLEESGGGLVQAGGSLRLSCAASGYTFRPYAIGWYRQAAGKERVLVAAISRSGGRTYYADSVKGRFTISRDNAKNTVYLQMNSLIPEDTAVYYCAADRFSLSGFDSWGQGTQGTVSS,low polyreactivity
2,QVQLEESGGGLVQAGGSLRLSCAASGYTFYYYAMGWYRQAPGKERELVAAISRSGGSTYYADSVKGRFTISRDNAKNTVSLQMNSLKQEDTAVYYCAARRLVGAERPGYDYWGQGTQVTVSS,high polyreactivity
3,QVQLEESGGGLVQAGGSLRLSCAATGLIFRTYAMGWYRQAPGKERELVAAISYSGGSTFYADSVNGRFTISRDNAKNTVYLQMNRLKPEDTAVYYCAADSRAKRYYWGQGTQVTVSS,high polyreactivity
4,QVQLEESGGGLVQAGGSLRLSCAAYGIIFRTYDMGWYRQAPGKEREFVAAINSDCSTYYADSVKGRFTFSRDNAKNSVYLQMISVKTEDTAVYYCASDHYYAGAWYYFWGQGTQVTVSS,high polyreactivity
5,QVQLEESGGGLVQAGGSLRLSCAGSGFTFGVYAMGWYRQAPGKERELVAVIRGSGGSTYYADSVKGRFTISRDKAKNTVYLQMNSLKPEDTAGYYCAARRYQYVWSLYNYWGQGTQVTVSS,high polyreactivity
6,QVQLEESGGGLVQAGGSLRLSCPASGIIFGSYAMGWSRQAPGKERELVAAITSDGITNYADSVKGRFTISRDNGKNTVYLPMNSLKPEDTAVYYCAAPGPLGGSDYWGQGTQVTVSS,low polyreactivity
7,QVQLEESGGGLVQAGGSLRLSCPASGSTFGKNAMGWSRQAPGKERELVASITWRGGCTYYADSVKGRITISRDNAKNTVFLQMNSLKPEDTAVYYCATNWHIHIGSYKYYYWGQGTQVTVSS,low polyreactivity
8,QVQLEESGGGLVQAGGSLRLSSAASGRIFGGYAMGWYRQAPGKEREMVAAITQSGGSTYYADSVKGRFTISRDNAKNTVYLQMNSLTAEDTAVYYCNARLARGYWTPGKERPMEYWGQGTQVTVSS,low polyreactivity
9,QVQLEESGGGLVQAGGSLRLSSAASGSTFCWYAMGGYRKEPGKERELVAAISIGGSTKYADSVKGRLTISRDNAKNSVYLQMNRMKPEYSAVYYCAAEVSYHYVPYGYWGQGTQVTVSS,low polyreactivity
10,QVQLEESGGGLVQAGGSLRLSSAASGSTFYIYVMGWYSQAPGKERELVARISSSGGSTYYADSVKGRFTISRDNAKNSVYLQMNSLKPVDTAVYYCNVDYGAWYDYWGQGTQVTVSS,low polyreactivity
11,QVQLEESGGGLVQAGGSLRLSWAASGSTFSVNAMGWYRQAPGKERELVARITNGGSTYYADSVKGRFTISRDNAKNTVYLQMNSLKPEDTAVYYCAAKLGSYIYHKQRDWGQGTQVTVSS,low polyreactivity
12,QVQLEESGGGLVQAGGSLRLTCAASGITFGTYAMGWYRQAPGKEREFVAGYYADSVKGRFTISRDNAKNTVYLQMNSLKPEDTAVYYCAADYLYHDDVDYWGQGTQVTVSS,low polyreactivity
13,QVQLEESGGGLVQAGGSLRLTCAASGSTFYGYAMGWYRQAPGKERELVAAITRSGGSTYYADSVKVRFTISRDNAKYTVYLQMNSLKPEDTAVYYCNKYIGWYGTGSDYYWGQGTQVNVSS,high polyreactivity
14,QVQLEESGGGLVQAGGTLRLSCAASGSIFYGYAMGWYRKATGKQRDLVAVITDGGGSTYYADSVKGRFTISRDNAKNTVYLQMNSLKPEDTAVYYCAADSWGRYYYSSYSYDYWGQGTQVTVSS,low polyreactivity
15,QVQLEESGGGLVQEGGSLRLSCAASGRIFKWNAMGLYRQAPGKERELVAAISLSGGSTYYADSVKGRFTISRDNAKNTVYLQMNSLKPEDTAVYYCNAYAYHRYGYWGQGTQVTVSS,high polyreactivity
16,QVQLEESGGGLVQEGGSLRLSCAASGSTFVTYAMGWYRPSPGKARELVAAISQSGGSTYYADSVKGRFTISRDNAKNTVYLQMNSLKPEDSAVYYCAAEYWDIAYCFVWWIYDYWGQGTLVTVSS,high polyreactivity
17,QVQLEESGGGLVQVGGSLRLSCAASGLTFRYYAMGWYRQAPGKERELVAAISGSGSTTYYADSVKGRFTISRDNAKNTVYLQMNSLKPEDTAVYYCNARRTGRVGGVVTHYYWGQGTQVTVSS,high polyreactivity
18,QVQLEESGGGVVQAGGSLRLSCAASGGIFNVYVMGWYRQAPGKERELVAAITWRGGSTYYADSVKGRFTISRDNAKNTVYLQMNSLKPEDTAVYYCNADAPFQSSSDGYQVEYWGQGTQVTVSS,low polyreactivity
19,QVQLEESGGGVVQAGGSLRLSCAASGRTLSHYAIGWYRQAPGKERELVAVISWSGTSTYYADSVKGRFTISRDNAKNTVYLQMNSLKPEDTAVYYCNADTYGYYLWTGAVSAGDDYWGQGTQVTVSS,low polyreactivity
20,QVQLEESGGGVVQAGGSLSLSCAASVSTFIFNTMGWYRQATGKERELVASITGDGRTNYADSVKGRFTISRDNAKNTVYLQMNSLKPEDTAVYDCAADGYDQYPLWAPPGDYWGQGTQVTVSS,low polyreactivity
21,QVQLEESGGRLVQAGGSLRLSCAASGFIFGWNAMGWYRQAPGKERELVASIRSSGGTTYADSVKGRFTISRDNAKNTVYLEMNSLKPEDTAVYYCSKRDRYKRYDFWGLGTQVTVSS,low polyreactivity
